{"source": "IntAct's records for PubMed 24725409", "parents": {"B1": {"name": "Cadherin-related family member 5 (Homo sapiens), Q9HBB8-2 (parent)", "chain": "MGSWALLWPPLLFTGLLVRPPGTMAQAQYCSVNKDIFEVEENTNVTEPLVDIHVPEGQEVTLGALSTPFAFRIQGNQLFLNVTPDYEEKSLLEAQLLCQSGGTLVTQLRVFVSVLDVNDNAPEFPFKTKEIRVEEDTKVNSTVIPETQLQAEDRDKDDILFYTLQEMTAGASDYFSLVSVNRPALRLDRPLDFYERPNMTFWLLVRDTPGENVEPSHTATATLVLNVVPADLRPPWFLPCTFSDGYVCIQAQYHGAVPTGHILPSPLVLRPGPIYAEDGDRGINQPIIYSIFRGNVNGTFIIHPDSGNLTVARSVPSPMTFLLLVKGQQADLARYSVTQVTVEAVAAAGSPPRFPQRLYRGTVARGAGAGVVVKDAAAPSQPLRIQAQDPEFSDLNSAITYRITNHSHFRMEGEVVLTTTTLAQAGAFYAEVEAHNTVTSGTATTVIEIQVSEQEPPSTGGGPSEDKRFSVVDMAALGGVLGALLLLALLGLAVLVHKHYGPRLKCCCGKAPEPQPQGFDNQAFLPDHKANWAPVPSPTHDPKPAEAPMPAEPAPPGPASPGGAPEPPAAARAGGSPTAVRSILTKERRPEGGYKAVWFGEDIGTEADVVVLNAPTLDVDGASDSGSGDEGEGAGRGGGPYDAPGGDDSYI", "partner": "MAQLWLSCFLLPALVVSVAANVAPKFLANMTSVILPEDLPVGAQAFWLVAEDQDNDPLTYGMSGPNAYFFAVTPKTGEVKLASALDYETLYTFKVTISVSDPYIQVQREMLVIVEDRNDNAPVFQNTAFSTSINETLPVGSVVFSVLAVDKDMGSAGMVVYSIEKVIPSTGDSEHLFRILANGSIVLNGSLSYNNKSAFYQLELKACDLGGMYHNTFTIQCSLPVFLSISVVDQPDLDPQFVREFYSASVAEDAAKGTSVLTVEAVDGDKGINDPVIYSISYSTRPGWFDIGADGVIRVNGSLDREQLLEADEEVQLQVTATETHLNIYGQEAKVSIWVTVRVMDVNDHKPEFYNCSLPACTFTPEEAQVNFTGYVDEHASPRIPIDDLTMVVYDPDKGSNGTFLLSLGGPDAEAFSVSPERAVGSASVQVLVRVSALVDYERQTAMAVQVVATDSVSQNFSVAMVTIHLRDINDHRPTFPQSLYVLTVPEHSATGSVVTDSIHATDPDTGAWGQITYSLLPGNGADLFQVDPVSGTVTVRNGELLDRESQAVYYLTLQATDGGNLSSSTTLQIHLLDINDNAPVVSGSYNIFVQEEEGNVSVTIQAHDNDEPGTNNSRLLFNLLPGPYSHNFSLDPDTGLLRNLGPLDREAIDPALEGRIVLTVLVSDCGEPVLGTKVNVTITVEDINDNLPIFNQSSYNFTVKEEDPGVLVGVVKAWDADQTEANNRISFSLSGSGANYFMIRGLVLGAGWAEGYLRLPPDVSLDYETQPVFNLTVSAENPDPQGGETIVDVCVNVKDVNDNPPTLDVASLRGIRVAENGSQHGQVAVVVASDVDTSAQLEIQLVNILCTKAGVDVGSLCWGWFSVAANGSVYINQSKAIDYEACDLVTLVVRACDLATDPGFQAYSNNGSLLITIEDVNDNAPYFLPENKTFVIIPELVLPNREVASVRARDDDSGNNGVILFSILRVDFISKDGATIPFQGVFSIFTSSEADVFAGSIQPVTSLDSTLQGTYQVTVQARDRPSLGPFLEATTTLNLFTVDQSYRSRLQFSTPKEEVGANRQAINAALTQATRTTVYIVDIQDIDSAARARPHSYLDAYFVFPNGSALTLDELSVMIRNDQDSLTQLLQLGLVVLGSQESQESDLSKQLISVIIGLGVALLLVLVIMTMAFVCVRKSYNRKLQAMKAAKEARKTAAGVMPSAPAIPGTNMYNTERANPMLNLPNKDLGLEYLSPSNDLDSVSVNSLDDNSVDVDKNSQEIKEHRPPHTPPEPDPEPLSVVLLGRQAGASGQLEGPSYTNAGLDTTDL"}, "B2": {"name": "Cadherin-related family member 5 (Homo sapiens), Q9HBB8 (parent)", "chain": "MGSWALLWPPLLFTGLLVRPPGTMAQAQYCSVNKDIFEVEENTNVTEPLVDIHVPEGQEVTLGALSTPFAFRIQGNQLFLNVTPDYEEKSLLEAQLLCQSGGTLVTQLRVFVSVLDVNDNAPEFPFKTKEIRVEEDTKVNSTVIPETQLQAEDRDKDDILFYTLQEMTAGASDYFSLVSVNRPALRLDRPLDFYERPNMTFWLLVRDTPGENVEPSHTATATLVLNVVPADLRPPWFLPCTFSDGYVCIQAQYHGAVPTGHILPSPLVLRPGPIYAEDGDRGINQPIIYSIFRGNVNGTFIIHPDSGNLTVARSVPSPMTFLLLVKGQQADLARYSVTQVTVEAVAAAGSPPRFPQRLYRGTVARGAGAGVVVKDAAAPSQPLRIQAQDPEFSDLNSAITYRITNHSHFRMEGEVVLTTTTLAQAGAFYAEVEAHNTVTSGTATTVIEIQVSEQEPPSTDVPPSPEAGGTTGPWTSTTSEVPRPPEPSQGPSTTSSGGGTGPHPPSGTTLRPPTSSTPGGPPGAENSTSHQPATPGGDTAQTPKPGTSQPMPPGVGTSTSHQPATPSGGTAQTPEPGTSQPMPPSMGTSTSHQPATPGGGTAQTPEAGTSQPMPPGMGTSTSHQPTTPGGGTAQTPEPGTSQPMPLSKSTPSSGGGPSEDKRFSVVDMAALGGVLGALLLLALLGLAVLVHKHYGPRLKCCCGKAPEPQPQGFDNQAFLPDHKANWAPVPSPTHDPKPAEAPMPAEPAPPGPASPGGAPEPPAAARAGGSPTAVRSILTKERRPEGGYKAVWFGEDIGTEADVVVLNAPTLDVDGASDSGSGDEGEGAGRGGGPYDAPGGDDSYI", "partner": "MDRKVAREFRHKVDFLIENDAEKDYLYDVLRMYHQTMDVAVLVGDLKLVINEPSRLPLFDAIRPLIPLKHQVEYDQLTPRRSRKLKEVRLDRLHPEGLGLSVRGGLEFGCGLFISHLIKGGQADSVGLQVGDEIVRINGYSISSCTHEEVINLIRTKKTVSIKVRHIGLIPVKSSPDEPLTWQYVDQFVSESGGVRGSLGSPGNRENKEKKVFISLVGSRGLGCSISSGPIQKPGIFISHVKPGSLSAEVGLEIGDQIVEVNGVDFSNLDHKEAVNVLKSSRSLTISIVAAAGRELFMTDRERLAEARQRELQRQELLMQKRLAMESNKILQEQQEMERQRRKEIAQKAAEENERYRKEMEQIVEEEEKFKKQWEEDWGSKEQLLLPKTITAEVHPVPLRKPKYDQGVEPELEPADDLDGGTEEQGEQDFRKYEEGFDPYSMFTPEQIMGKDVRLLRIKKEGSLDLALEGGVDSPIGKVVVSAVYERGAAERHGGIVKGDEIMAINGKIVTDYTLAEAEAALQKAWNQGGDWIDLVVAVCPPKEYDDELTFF"}, "B3": {"name": "Cadherin-related family member 2 (Homo sapiens), Q9BYE9 (parent)", "chain": "B1 partner", "partner": "B2 partner"}}, "data": [{"variants_of": "B1", "conditions": "with cdhr2_human CDHR2, Q9BYE9", "values": [{"variant": "R109G", "effect of a mutation on the interaction": "disrupting interaction strength"}]}, {"variants_of": "B2", "conditions": "with USH1C", "values": [{"variant": "I845R", "effect of a mutation on the interaction": "disrupting interaction strength"}]}, {"variants_of": "B3", "conditions": "with USH1C", "values": [{"variant": "L1310R", "effect of a mutation on the interaction": "disrupting interaction strength"}]}]}
